Three molecules from patent publication US20230114801A1 (SYSTIMMUNE, published 2023) can be followed below.

Assay [1] concerns the target T1, human CD3 (human, UniProt P07766 23-126; P04234 22-105).
T1 construct: also called His-tagged human CD3; human CD3 (Acro CDD-H52W1)
Briefly: BLI (Octet), binder on AHC sensor, 100 nM human CD3, 1:1 fit. Background: Biolayer interferometry detects binding as a change in optical thickness at a sensor tip.

Assay [2] concerns the target T2, human EGFR (human, UniProt P00533 25-645, limits assumed).
T2 construct: Soluble antigen in Octet; construct not described
Briefly: BLI (Octet), binder on AHC sensor, 200 nM human EGFR, 1:1 fit.

Assay [3] concerns the target T3, human HER3 (human, UniProt P21860 20-643).
T3 construct: Soluble antigen in Octet; bought; also called human HER3 (Acro ER3-H5223)
Briefly: BLI (Octet), binder on AHC sensor, 200 nM human HER3, 1:1 fit.

Assay [4] has as its target T1, human CD3. Briefly: BLI (Octet), binder on AHC sensor, 100 nM human antigen, 1:1 fit.
For assay [5], the target named is T2, human EGFR. The assay is described as above.
The target of assay [6] is T3, human HER3. The assay is described as above.
The next assay has as its target T4, human 4-1BB (human, UniProt Q07011 24-186, limits assumed).
T4 construct: Soluble antigen in Octet; construct not described
Described as above.

B1: SI-75X19 (other)
chain 1: QVQLQESGGRLVQPGEPLSLTCKTSGIDLSSNAIGWVRQAPGKGLEWIGVIFGSGNTYYASWAKGRFTISRSTSTVYLKMNSLRSEDTAIYYCARGGYSSDIWGQGTLVTVSSASTKGPSVFPLAPSSKSTSGGTAALGCLVKDYFPEPVTVSWNSGALTSGVHTFPAVLQSSGLYSLSSVVTVPSSSLGTQTYICNVNHKPSNTKVDKRVEPKSCDKTHTCPPCPAPEAAGGPSVFLFPPKPKDTLMISRTPEVTCVVVDVSHEDPEVKFNWYVDGVEVHNAKTKPREEQYNSTYRVVSVLTVLHQDWLNGKEYKCAVSNKALPAPIEKTISKAKGQPREPQVYTLPPSRDELTKNQVSLSCAVKGFYPSDIAVEWESNGQPENNYKTTPPVLDSDGSFFLVSKLTVDKSRWQQGNVFSCSVMHEALHNHYTQKSLSLSPGGGGGSGGGGSEVQLQESGGGLVQAGDSLSLSCLVSGRSFNSYTMGWFRQAPGKEREFVAAILWSGPTTYYADSVKGRFTISRDNAKNTVYLQMNSLKPEDTAVYYCAAALGVLVLAPGNVYSYWGQGTQVTVSS
chain 2: DPQLTQSPSSLSATVGQRVTINCQSSQSVAKNNNLAWFQQKPGKPPKLLIYSASTLAAGVPSRFSGSGSGTQFTLTITRVQSEDFATYYCSARDSGNIQSFGGGTRVEIKRTVAAPSVFIFPPSDEQLKSGTASVVCLLNNFYPREAKVQWKVDNALQSGNSQESVTEQDSKDSTYSLSSTLTLSKADYEKHKVYACEVTHQGLSSPVTKSFNRGECGGDKTHTCPPCPAPEAAGGPSVFLFPPKPKDTLMISRTPEVTCVVVDVSHEDPEVKFNWYVDGVEVHNAKTKPREEQYNSTYRVVSVLTVLHQDWLNGKEYKCAVSNKALPAPIEKTISKAKGQPREPQVYTLPPSRDELTKNQVSLWCLVKGFYPSDIAVEWESNGQPENNYKTTPPVLDSDGSFFLYSKLTVDKSRWQQGNVFSCSVMHEALHNRFTQKSLSLSPGGGGGSGGGGSQVQLVQSGGGLVQAGGSLSLSCAFSGRTFSMYTMGWFRQAPGKEREFVAANRGRGLSPDIADSVNGRFTISRDNAKNTLYLQMDSLKPEDTAVYYCAADLQYGSSWPQRSSAEYDYWGQGTTVTVSS
notes: tri-miniGNC; D3 αCD3* (Fab), D4 αEGFR VHH, D5 αHER3 VHH
A word on the Kd: it is the free concentration of one partner at which half of the binding sites on the other are occupied at equilibrium, for simple one-to-one binding. A high value points to a looser complex. On to B1, for which the Kd with human CD3 [1] was found to be 0.0644 µM; in the assay with human EGFR [2], 0.0206 µM; with human HER3 [3], 0.0105 µM.

B2: SI-75E1 (other)
chain 1: EIVLTQSPSTLSVSPGERATFSCRASQSIGTNIHWYQQKPGKPPRLLIKYASESISGIPDRFSGSGSGTEFTLTISSVQSEDFAVYYCQQNNNWPTTFGPGTKLTVLGGGGSGGGGSGGGGSGGGGSQVQLQQSGPGLVKPSETLSITCTVSGFSLTNYGVHWIRQAPGKGLEWLGVIWSGGNTDYNTPFTSRFTITKDNSKNQVYFKLRSVRADDTAIYYCARALTYYDYEFAYWGQGTLVTVSSGGGGSGGGGSEVQLVESGGGLVQPGGSLRLSCAASGFTISTNAMSWVRQAPGKGLEWIGVITGRDITYYASWAKGRFTISRDNSKNTLYLQMNSLRAEDTAVYYCARDGGSSAITSNNIWGQGTLVTVSSASTKGPSVFPLAPSSKSTSGGTAALGCLVKDYFPEPVTVSWNSGALTSGVHTFPAVLQSSGLYSLSSVVTVPSSSLGTQTYICNVNHKPSNTKVDKRVEPKSCDKTHTCPPCPAPEAAGGPSVFLFPPKPKDTLMISRTPEVTCVVVDVSHEDPEVKFNWYVDGVEVHNAKTKPREEQYNSTYRVVSVLTVLHQDWLNGKEYKCAVSNKALPAPIEKTISKAKGQPREPQVYTLPPSRDELTKNQVSLSCAVKGFYPSDIAVEWESNGQPENNYKTTPPVLDSDGSFFLVSKLTVDKSRWQQGNVFSCSVMHEALHNHYTQKSLSLSPGGGGGSGGGGSDVVMTQSPSSVSASVGDRVTITCQASQNIRTYLSWYQQKPGKAPKLLIYAAANLASGVPSRFSGSGSGTDFTLTISDLEPGDAATYYCQSTYLGTDYVGGAFGGGTKLTVLGGGGSGGGGSGGGGSGGGGSEVQLVESGGGLVQPGGSLRLSCTASGFTISSYHMQWVRQAPGKGLEYIGTISSGGNVYYASSARGRFTISRPSSKNTVDLQMNSLRAEDTAVYYCARDSGYSDPMWGQGTLVTVSS
chain 2: QSALTQPASVSGSPGQSITISCTGTSSDVGGYNFVSWYQQHPGKAPKLMIYDVSDRPSGVSDRFSGSKSGNTASLIISGLQADDEADYYCSSYGSSSTHVIFGGGTKVTVLGGGGSGGGGSGGGGSGGGGSQVQLQESGGGLVKPGGSLSLSCAASGFTFSSYWMSWVRQAPGKGLEWVANINRDGSASYYVDSVKGRFTISRDDAKNSLYLQMNSLRAEDTAVYYCARDRGVGYFDLWGRGTLVTVSSGGGGSGGGGSDVVMTQSPSTLSASVGDRVTINCQASESISSWLAWYQQKPGKAPKLLIYEASKLASGVPSRFSGSGSGTEFTLTISSLQPDDFATYYCQGYFYFISRTYVNSFGGGTKVEIKRTVAAPSVFIFPPSDEQLKSGTASVVCLLNNFYPREAKVQWKVDNALQSGNSQESVTEQDSKDSTYSLSSTLTLSKADYEKHKVYACEVTHQGLSSPVTKSFNRGECGGDKTHTCPPCPAPEAAGGPSVFLFPPKPKDTLMISRTPEVTCVVVDVSHEDPEVKFNWYVDGVEVHNAKTKPREEQYNSTYRVVSVLTVLHQDWLNGKEYKCAVSNKALPAPIEKTISKAKGQPREPQVYTLPPSRDELTKNQVSLWCLVKGFYPSDIAVEWESNGQPENNYKTTPPVLDSDGSFFLYSKLTVDKSRWQQGNVFSCSVMHEALHNRFTQKSLSLSPG
notes: tetra-miniGNC; D1 αEGFR, D2 αHER3, D3 αCD3 (Fab), D4 α4-1BB
Turning to B2, the Kd came out at 0.0203 µM with human CD3 [4], 0.0089 µM in the assay with human EGFR [5], 0.185 µM with human HER3 [6] and 0.0178 µM with human 4-1BB.

B3: SI-75X17 (other)
chain 1: EVQLQESGGGLVQAGDSLSLSCLVSGRSFNSYTMGWFRQAPGKEREFVAAILWSGPTTYYADSVKGRFTISRDNAKNTVYLQMNSLKPEDTAVYYCAAALGVLVLAPGNVYSYWGQGTQVTVSSGGGGSGGGGSQVQLQESGGRLVQPGEPLSLTCKTSGIDLSSNAIGWVRQAPGKGLEWIGVIFGSGNTYYASWAKGRFTISRSTSTVYLKMNSLRSEDTAIYYCARGGYSSDIWGQGTLVTVSSASTKGPSVFPLAPSSKSTSGGTAALGCLVKDYFPEPVTVSWNSGALTSGVHTFPAVLQSSGLYSLSSVVTVPSSSLGTQTYICNVNHKPSNTKVDKRVEPKSCDKTHTCPPCPAPEAAGGPSVFLFPPKPKDTLMISRTPEVTCVVVDVSHEDPEVKFNWYVDGVEVHNAKTKPREEQYNSTYRVVSVLTVLHQDWLNGKEYKCAVSNKALPAPIEKTISKAKGQPREPQVYTLPPSRDELTKNQVSLSCAVKGFYPSDIAVEWESNGQPENNYKTTPPVLDSDGSFFLVSKLTVDKSRWQQGNVFSCSVMHEALHNHYTQKSLSLSPG
chain 2: QVQLVQSGGGLVQAGGSLSLSCAFSGRTFSMYTMGWFRQAPGKEREFVAANRGRGLSPDIADSVNGRFTISRDNAKNTLYLQMDSLKPEDTAVYYCAADLQYGSSWPQRSSAEYDYWGQGTTVTVSSGGGGSGGGGSDPQLTQSPSSLSATVGQRVTINCQSSQSVAKNNNLAWFQQKPGKPPKLLIYSASTLAAGVPSRFSGSGSGTQFTLTITRVQSEDFATYYCSARDSGNIQSFGGGTRVEIKRTVAAPSVFIFPPSDEQLKSGTASVVCLLNNFYPREAKVQWKVDNALQSGNSQESVTEQDSKDSTYSLSSTLTLSKADYEKHKVYACEVTHQGLSSPVTKSFNRGECGGDKTHTCPPCPAPEAAGGPSVFLFPPKPKDTLMISRTPEVTCVVVDVSHEDPEVKFNWYVDGVEVHNAKTKPREEQYNSTYRVVSVLTVLHQDWLNGKEYKCAVSNKALPAPIEKTISKAKGQPREPQVYTLPPSRDELTKNQVSLWCLVKGFYPSDIAVEWESNGQPENNYKTTPPVLDSDGSFFLYSKLTVDKSRWQQGNVFSCSVMHEALHNRFTQKSLSLSPG
notes: tri-miniGNC; D1 αEGFR VHH, D2 αHER3 VHH, D3 αCD3* (Fab)
As to B3, the figures for the Kd with human CD3 [1], with human EGFR [2] and with human HER3 [3] were 0.068 µM, 0.0148 µM and 0.00458 µM, respectively.
